# B1: Hsp47-HT (natural protein)
# chain: AEVKKPLEAAAPGTAEKLSSKATTLAERSTGLAFSLYQAMAKDQAVENILLSPLVVASSLGLVSLGGKATTASQAKAVLSAEKLRDEEVHTGLGELLRSLSNSTARNVTWKLGSRLYGPSSVSFADDFVRSSKQHYNCEHSKINFRDKRSALQSINEWASQTTDGKLPEVTKDVERTDGALLVNAMFFKPHWDEKFHHKMVDNRGFMVTRSYTVGVTMMHRTGLYNYYDDEKEKLQMVEMPLAHKLSSLIILMPHHVEPLERLEKLLTKEQLKAWMGKMQKKAVAISLPKGVVEVTHDLQKHLAGLGLTEAIDKNKADLSRMSGKKDLYLASVFHATAFEWDTEGNPFDQDIYGREELRSPKLFYADHPFIFLVRDNQSGSLLFIGRLVRPKGDKMRDEL
# modifications: HaloTag fluorescent ligand 618 on the HaloTag
# What was measured:
# [1] = molecular target: colFD-NL (bacteriophage T4); experiment: FRET or BRET; NanoBRET in the ER of living, transiently transfected HEK293 cells; colFD-NL (NanoLuc) donor, Hsp47-HT with HT ligand 618 (20-100 nM) acceptor; cells washed, furimazine added, 37 °C; BRET ratio 618/460 nm (mBU); some panels with Col003 and derivatives (2 h) or α,α-dipyridyl; the cell line is not named for every panel
# [2] = molecular target: colFD-NL (bacteriophage T4); experiment: FRET or BRET; NanoBRET in the ER of living, transiently transfected HeLa cells; colFD-NL donor, Hsp47-HT with HT ligand 618 acceptor; 37 °C
binder,measurement,setting,value
B1,"BRET ratio (donor to acceptor 1:50, HEK293)",[1],40 mBU
same,"BRET ratio (donor to acceptor 1:100, HeLa)",[2],25 mBU

# Reference: PMC6827286
